These results are taken from US20120316071A1 (published 2012).

For test [1], the target named is T1, rHuman IGF-1 sR, CF (R&D Systems Cat#391-GR) (human, UniProt P08069 31-932).
T1 construct: Bought recombinant soluble receptor; also called insulin-like growth factor-1 soluble receptor
The test can be described thus: ECL Multispot (MSD), antigen spotted; Fab 50 (µM); blank 386.

Test [2] deals with T2, rHuman Notch-1/Fc Chimera, CF (R&D Systems Cat#3647-TK) (human, UniProt P46531 19-526).
T2 construct: Bought recombinant protein; Fc part of the bought chimera not given
The description is as above.

Test [3] deals with T3, rHuman ErbB2/Fc Chimera, CF (R&D Systems Cat#1129-ER) (human, UniProt P04626 23-652).
T3 construct: Bought recombinant protein; Fc part of the bought chimera not given
The test is described as above.

Test [4] addresses T4, rHuman EGF R/Fc Chimera, CF (R&D Systems Cat#344-ER) (human, UniProt P00533 25-645).
T4 construct: Bought recombinant protein; Fc part of the bought chimera not given
Described as above.

The target of test [5] is T5, rHuman P-Cadherin/Fc Chimera, CF (R&D Systems Cat#861-PC) (human, UniProt P22223 108-654).
T5 construct: Bought recombinant protein; Fc part of the bought chimera not given
The test is described as above.

Test [6] has as its target T6, rHuman CD44/Fc Chimera, CF (R&D Systems Cat#3660-CD) (human, UniProt P16070 21-220).
T6 construct: Bought recombinant protein; Fc part of the bought chimera not given
The test can be described thus: ECL Multispot (MSD), antigen spotted; Fab 0.50 (µM); blank 142.

The target in test [7] is T1, rHuman IGF-1 sR, CF (R&D Systems …). Described as above.
Test [8] concerns the target T2, rHuman Notch-1/Fc Chimera, CF (R&D …). The test is described as above.
In test [9] the target is T3, rHuman ErbB2/Fc Chimera, CF (R&D …). Described as above.
The target in test [10] is T7, rHuman HGF R/c-MET/Fc Chimera, CF (R&D Systems Cat#358-MT/CF) (human, UniProt P08581 25-932).
T7 construct: Bought recombinant protein; also called HGF R/Fc; Fc part of the bought chimera not given
Described as above.

Test [11] addresses T4, rHuman EGF R/Fc Chimera, CF (R&D …). Described as above.
The target of test [12] is T8, Recombinant Human DLL4 (R&D Systems Cat#1506-D4/CF) (human, UniProt Q9NR61 27-529).
T8 construct: Bought recombinant protein; also called delta-like protein 4; rHuman DLL4
Described as above.

Test [13] has as its target T9, rHuman Erythropoietin R/Fc Chimera, CF (R&D Systems Cat#963-ER) (human, UniProt P19235 25-250).
T9 construct: Bought recombinant protein; also called EPO R; EPO R/Fc; Fc part of the bought chimera not given
T9 sequence (looked up): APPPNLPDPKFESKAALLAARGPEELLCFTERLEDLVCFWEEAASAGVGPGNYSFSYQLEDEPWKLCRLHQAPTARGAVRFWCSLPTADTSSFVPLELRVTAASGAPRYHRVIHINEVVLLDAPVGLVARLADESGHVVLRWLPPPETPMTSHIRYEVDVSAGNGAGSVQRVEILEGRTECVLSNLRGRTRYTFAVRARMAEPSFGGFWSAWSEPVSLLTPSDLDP
The test is described as above.

Test [14] has as its target T5, rHuman P-Cadherin/Fc Chimera, CF (R&D …). The test is described as above.
Test [15] has as its target T10, rHuman Notch-1/Fc Chimera, CF (R&D Systems Cat#3647-TK) (human, UniProt P46531 19-526).
T10 construct: Bought Fc chimera; Fc part of the bought chimera not given
Nature of the test: MSD Multispot ECL, antigen spotted on plate, Fab at 3.8 nM; blank spot 198.

Test [16] addresses T11, rHuman P-Cadherin/Fc Chimera, CF (R&D Systems Cat#861-PC) (human, UniProt P22223 108-654).
T11 construct: Bought Fc chimera; Fc part of the bought chimera not given
The test is described as above.

The target of test [17] is T12, rHuman CD44/Fc Chimera, CF (R&D Systems Cat#3660-CD) (human, UniProt P16070 21-220).
T12 construct: Bought Fc chimera; Fc part of the bought chimera not given
Described as above.

Test [18] deals with T13, rHuman Erythropoietin R/Fc Chimera, CF (R&D Systems Cat#963-ER) (human, UniProt P19235 25-250).
T13 construct: Bought Fc chimera; also called EPO R/Fc; Epo R; Fc part of the bought chimera not given
T13 sequence (looked up): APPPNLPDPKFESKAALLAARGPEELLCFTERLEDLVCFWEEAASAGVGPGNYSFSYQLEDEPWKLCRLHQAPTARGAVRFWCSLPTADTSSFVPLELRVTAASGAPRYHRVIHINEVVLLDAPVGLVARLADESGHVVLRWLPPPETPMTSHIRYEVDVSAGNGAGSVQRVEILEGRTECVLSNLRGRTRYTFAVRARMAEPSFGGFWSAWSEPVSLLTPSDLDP
Described as above.

Test [19] concerns the target T14, Recombinant Human DLL4 (R&D Systems Cat#1506-D4/CF) (human, UniProt Q9NR61 27-524).
T14 construct: Bought recombinant protein; also called rHuman DLL4; delta-like protein 4
Described as above.

Test [20] addresses T15, Recombinant Human DLL4 (R&D Systems Cat#1506-D4/CF) (human, UniProt Q9NR61 27-524).
T15 construct: Bought recombinant protein; also called delta-like protein 4; rHuman DLL4
Nature of the test: Multispot ECL (MSD) titration; antigen spotted on plate; Fab 24.5 nM; blank spot 149.

T7 sequence (P08581 25-932, change not shown): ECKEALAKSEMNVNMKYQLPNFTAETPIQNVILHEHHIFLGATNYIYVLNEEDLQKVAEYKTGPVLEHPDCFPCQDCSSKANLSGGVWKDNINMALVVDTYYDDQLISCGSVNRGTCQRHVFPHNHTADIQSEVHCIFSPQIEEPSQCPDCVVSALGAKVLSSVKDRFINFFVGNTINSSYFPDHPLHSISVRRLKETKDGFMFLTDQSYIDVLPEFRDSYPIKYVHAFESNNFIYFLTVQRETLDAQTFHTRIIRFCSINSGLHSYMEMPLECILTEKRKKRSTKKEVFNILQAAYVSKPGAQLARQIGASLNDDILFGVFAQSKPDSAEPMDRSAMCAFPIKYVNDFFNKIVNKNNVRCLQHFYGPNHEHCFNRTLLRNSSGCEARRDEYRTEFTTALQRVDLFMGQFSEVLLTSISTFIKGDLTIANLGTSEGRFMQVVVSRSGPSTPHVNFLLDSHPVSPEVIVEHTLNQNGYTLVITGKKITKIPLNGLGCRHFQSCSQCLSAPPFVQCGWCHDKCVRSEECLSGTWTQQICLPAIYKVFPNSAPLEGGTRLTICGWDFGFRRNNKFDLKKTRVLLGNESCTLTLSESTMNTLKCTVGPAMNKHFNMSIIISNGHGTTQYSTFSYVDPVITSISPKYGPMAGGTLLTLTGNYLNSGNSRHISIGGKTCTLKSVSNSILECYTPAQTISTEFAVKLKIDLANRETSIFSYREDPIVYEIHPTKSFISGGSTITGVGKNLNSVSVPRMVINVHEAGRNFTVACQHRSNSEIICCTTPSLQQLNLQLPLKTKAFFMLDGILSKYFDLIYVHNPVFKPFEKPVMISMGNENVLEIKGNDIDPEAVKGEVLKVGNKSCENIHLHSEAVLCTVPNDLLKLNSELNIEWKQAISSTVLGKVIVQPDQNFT

B1: Fab VH1-46_IGHD6-6*01_IGHJ1*01 S102A/S103P/S104F (APF) & L6_IGKJ1*01 (Fab, V domains shown)
VH: QVQLVQSGAEVKKPGASVKVSCKASGYTFTSYYMHWVRQAPGQGLEWMGIINPSGGSTSYAQKFQGRVTMTRDTSTSTVYMELSSLRSEDTAVYYCAREEYAPFSAEYFQHWGQGTLVTVSS
VL: not shown
notes: Tested as a Fab made in E. coli: VH cloned in Plasmid A (CH1 constant region, His6 and Flag tags), VL in Plasmid C (kappa constant region); also called H:APF & L:wt; APF triple mutant
Take B1: the ECL signal in test [1] worked out at 558; in test [2], 509; in test [3] it was 672; in [4] it was 585; in [5], 652; in [6] it was 207. Further, the ECL signal worked out at 190 in [7]; 230 in test [8]; 199 in [9]; 182 in test [10]; 152 in [11]; 6670 in test [12]. Also, the ECL signal in test [13] worked out at 235; in [14] it was 161.

B2: Fab VH6-1_IGHD3-3*01_IGHJ4*01 & V4-3_IGLJ4*01 (Fab, V domains shown)
VH: QVQLQQSGPGLVKPSQTLSLTCAISGDSVSSNSAAWNWIRQSPSRGLEWLGRTYYRSKWYNDYAVSVKSRITINPDTSKNQFSLQLNSVTPEDTAVYYCAREYYDFWSGYYTDYFDYWGQGTLVTVSS
VL: QPVLTQPTSLSASPGASARLTCTLRSGINLGSYRIFWYQQKPESPPRYLLSYYSDSSKHQGSGVPSRFSGSKDASSNAGILVISGLQSEDEADYYCMIWHSSASFVFGGGTQLIIL
notes: Tested as a purified germline Fab made in E. coli; The VH was cloned into plasmid A (CH1 constant region, His6 and Flag tags) and the lambda VL into plasmid E (lambda CL)
For B2, the ECL signal in test [15] was found to be 383; in [16] it was 281; in test [17], 419; in [18] it was 407; in [19], 462.

B3: Fab VH1-46_IGHD3-10*01_IGHJ4*01 & O1_IGKJ1*01 (Fab, V domains shown)
VH: QVQLVQSGAEVKKPGASVKVSCKASGYTFTSYYMHWVRQAPGQGLEWMGIINPSGGSTSYAQKFQGRVTMTRDTSTSTVYMELSSLRSEDTAVYYCAREYYYGSGSYYNDYFDYWGQGTLVTVSS
VL: DIVMTQTPLSLPVTPGEPASISCRSSQSLLDSDDGNTYLDWYLQKPGQSPQLLIYTLSYRASGVPDRFSGSGSGTDFTLKISRVEAEDVGVYYCMQRIEFPSWTFGQGTKVEIKR
notes: Germline library Fab expressed in E. coli; VH was cloned into Plasmid A (CH1 constant region, His6 and Flag tags); The kappa VL was cloned into Plasmid C (kappa CL)
Consider B3, for which the ECL signal in test [20] was 339.
